The text below walks through data of patent publication US20260207669A1 (TIANJIN MEDICAL UNIVERSITY GENERAL HOSPITAL, published 2026).

T1: human BAFFR overexpressed on 293T cells (human, UniProt Q96RJ3 1-184)
T1 construct: whole, on cells
T1 sequence (looked up): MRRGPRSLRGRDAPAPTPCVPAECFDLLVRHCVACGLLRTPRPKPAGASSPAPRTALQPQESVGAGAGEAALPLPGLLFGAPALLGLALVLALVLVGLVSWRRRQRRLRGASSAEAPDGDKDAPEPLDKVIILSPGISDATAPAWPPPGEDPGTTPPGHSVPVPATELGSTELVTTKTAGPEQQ

B1: NB467-7 (Fc fusion)
chain: QVQLVESGGGSVHPGGSLRLSCAGSGFTLAGYAIGWFRQAPGKEREGVSCINSSGGSTYYADSVKGRFTISRDNAKNTVYLQMNSLKPEDTAVYYCAADVYYSGSYLYRSCNPTESKYWGQGTQVTVSS
notes: also called anti-BAFFR nanobody NB467-7; antibody NB467-7; not shown: Human IgG1 Fc fused to the VHH
B2: NB467-88 (Fc fusion)
chain: EVQVVESGGGLVQPGGSLRLSCAASGFRLNYYAIGWFRQAPGKEREGVSCISSGGDRIYYADSVKGRFTISRDNAKNTVYLQMNSLKPEDTAVYYCAADLYYSGSYYYRSCNPAESGYWGQGTQVTVSS
notes: also called anti-BAFFR nanobody NB467-88; antibody NB467-88; not shown: Human IgG1 Fc fused to the VHH
B3: NB467-71 (Fc fusion)
chain: EVQVVESGGGLVQSGGSLRLSCVASGFNLDHYAIGWFRQIPGKEREGVSCISSGGDSTFYIDSVKGRFTISRDNAKNTVYLQMNSLKPEDTAVYHCAADVYYSGNYLYRSCNPHESKYWGQGTQVTVSS
notes: also called anti-BAFFR nanobody NB467-71; antibody NB467-71; not shown: Human IgG1 Fc fused to the VHH

The target in this assay is T1, human BAFFR overexpressed on 293T cells. The assay is described as follows: flow cytometry on HEK-293T-BAFFR cells, anti-human Fc-647 secondary antibody. On the procedure: The cells were resuspended in a suitable volume of staining solution for flow cytometry, so that the final cell concentration per tube reached 2×10⁵ cells/mL.
The antibodies NB467-7, NB467-71, and NB467-88 produced in Example 1 and the control antibody were diluted to 200 nM, respectively. […] After incubation, the cells were washed once with a FACS buffer.
The anti-human FC-647 secondary antibody (Jackson, 109-605-003) was diluted according to the instructions, and 100 μL of the diluted secondary antibody was added to a sample tube. After uniform mixing, the system was incubated at 4° C. for 60 min. After incubation, the cells were washed 3 times with FACS, and the cell precipitate obtained by centrifugation was resuspended in 200 μL of PBS and detected by flow cytometry (Sony, SA3800).
By EC50 is commonly meant the concentration giving half of the maximal effect. Regarding B1, a half-maximal response (EC50) required 6.73 nM.

Turning to B2, the EC50 was found to be 1.31 nM.

As to B3, the EC50 is 10.6 nM.
